Starred links: 1 amine or outer side, 2 acyl side, 3 side chain; linkers in the order of their positions; H or OH if unused. Positions of bridges follow the written chain, without caps; N, C: chain ends. *: point of attachment. C20 diacid = O=C(O)CCCCCCCCCCCCCCCCCCC(=O)*; γGlu = O=C(O)[C@H](CCC(=O)[*:2])N[*:1]
T1: human amylin 3(a) receptor (human calcitonin receptor + RAMP-3) (human, UniProt P30988 25-474; O60896 24-148)
T1 sequence (looked up) 1: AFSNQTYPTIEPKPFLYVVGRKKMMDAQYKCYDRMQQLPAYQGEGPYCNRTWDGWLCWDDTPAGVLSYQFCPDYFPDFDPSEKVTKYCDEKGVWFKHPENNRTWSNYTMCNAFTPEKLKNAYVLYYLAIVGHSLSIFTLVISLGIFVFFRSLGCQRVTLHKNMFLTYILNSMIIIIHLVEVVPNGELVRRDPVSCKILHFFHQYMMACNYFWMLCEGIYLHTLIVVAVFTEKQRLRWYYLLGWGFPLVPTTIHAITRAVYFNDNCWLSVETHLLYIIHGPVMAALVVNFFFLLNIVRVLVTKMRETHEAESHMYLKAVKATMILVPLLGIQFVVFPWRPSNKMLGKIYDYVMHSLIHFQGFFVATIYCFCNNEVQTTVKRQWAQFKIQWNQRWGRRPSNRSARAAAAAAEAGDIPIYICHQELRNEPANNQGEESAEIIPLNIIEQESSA
T1 sequence (looked up) 2: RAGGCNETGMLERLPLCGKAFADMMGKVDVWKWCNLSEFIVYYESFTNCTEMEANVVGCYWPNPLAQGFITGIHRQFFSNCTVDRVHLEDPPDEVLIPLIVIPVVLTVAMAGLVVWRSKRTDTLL

T2: human calcitonin (a) receptor (human, UniProt P30988 25-474)
T2 sequence (looked up): T1 sequence (looked up) 1

B1: N-alpha-[(S)-4-Carboxy-4-(19-carboxynonadecanoylamino)butyryl]-Glu-Glu-[Arg1,Glu14,Arg17,Gln21,Gln35,Pro37]-pramlintide (peptide)
peptide: {C20 diacid-γGlu}-EERCNTATCATQRLAEFLRHSSQNFGPILPPTNVGSQTP-NH2
modifications: disulfide 4-9
SMILES: CC[C@H](C)[C@H](NC(=O)[C@@H]1CCCN1C(=O)CNC(=O)[C@H](Cc1ccccc1)NC(=O)[C@H](CC(N)=O)NC(=O)[C@H](CCC(N)=O)NC(=O)[C@H](CO)NC(=O)[C@H](CO)NC(=O)[C@H](Cc1c[nH]cn1)NC(=O)[C@H](CCCNC(=N)N)NC(=O)[C@H](CC(C)C)NC(=O)[C@H](Cc1ccccc1)NC(=O)[C@H](CCC(=O)O)NC(=O)[C@H](C)NC(=O)[C@H](CC(C)C)NC(=O)[C@H](CCCNC(=N)N)NC(=O)[C@H](CCC(N)=O)NC(=O)[C@@H](NC(=O)[C@H](C)NC(=O)[C@@H]1CSSC[C@H](NC(=O)[C@H](CCCNC(=N)N)NC(=O)[C@H](CCC(=O)O)NC(=O)[C@H](CCC(=O)O)NC(=O)CC[C@H](NC(=O)CCCCCCCCCCCCCCCCCCC(=O)O)C(=O)O)C(=O)N[C@@H](CC(N)=O)C(=O)N[C@@H]([C@@H](C)O)C(=O)N[C@@H](C)C(=O)N[C@@H]([C@@H](C)O)C(=O)N1)[C@@H](C)O)C(=O)N[C@@H](CC(C)C)C(=O)N1CCC[C@H]1C(=O)N1CCC[C@H]1C(=O)N[C@H](C(=O)N[C@@H](CC(N)=O)C(=O)N[C@H](C(=O)NCC(=O)N[C@@H](CO)C(=O)N[C@@H](CCC(N)=O)C(=O)N[C@H](C(=O)N1CCC[C@H]1C(N)=O)[C@@H](C)O)C(C)C)[C@@H](C)O
B2: N-alpha-[(S)-4-Carboxy-4-(19-carboxynonadecanoylamino)butyryl]-Glu-Arg-[Glu1,Glu14,Arg17,Gln21,Gln31,Gln35,Pro37]-pramlintide (peptide)
peptide: {C20 diacid-γGlu}-ERECNTATCATQRLAEFLRHSSQNFGPILPPTQVGSQTP-NH2
modifications: disulfide 4-9
SMILES: CC[C@H](C)[C@H](NC(=O)[C@@H]1CCCN1C(=O)CNC(=O)[C@H](Cc1ccccc1)NC(=O)[C@H](CC(N)=O)NC(=O)[C@H](CCC(N)=O)NC(=O)[C@H](CO)NC(=O)[C@H](CO)NC(=O)[C@H](Cc1c[nH]cn1)NC(=O)[C@H](CCCNC(=N)N)NC(=O)[C@H](CC(C)C)NC(=O)[C@H](Cc1ccccc1)NC(=O)[C@H](CCC(=O)O)NC(=O)[C@H](C)NC(=O)[C@H](CC(C)C)NC(=O)[C@H](CCCNC(=N)N)NC(=O)[C@H](CCC(N)=O)NC(=O)[C@@H](NC(=O)[C@H](C)NC(=O)[C@@H]1CSSC[C@H](NC(=O)[C@H](CCC(=O)O)NC(=O)[C@H](CCCNC(=N)N)NC(=O)[C@H](CCC(=O)O)NC(=O)CC[C@H](NC(=O)CCCCCCCCCCCCCCCCCCC(=O)O)C(=O)O)C(=O)N[C@@H](CC(N)=O)C(=O)N[C@@H]([C@@H](C)O)C(=O)N[C@@H](C)C(=O)N[C@@H]([C@@H](C)O)C(=O)N1)[C@@H](C)O)C(=O)N[C@@H](CC(C)C)C(=O)N1CCC[C@H]1C(=O)N1CCC[C@H]1C(=O)N[C@H](C(=O)N[C@@H](CCC(N)=O)C(=O)N[C@H](C(=O)NCC(=O)N[C@@H](CO)C(=O)N[C@@H](CCC(N)=O)C(=O)N[C@H](C(=O)N1CCC[C@H]1C(N)=O)[C@@H](C)O)C(C)C)[C@@H](C)O
B3: N-alpha-[(S)-4-Carboxy-4-(19-carboxynonadecanoylamino)butyryl]-Glu-Arg-[Glu1,Glu14,Arg17,Gln21,Gln22,Gln31,Gln35,Pro37]-pramlintide (peptide)
peptide: {C20 diacid-γGlu}-ERECNTATCATQRLAEFLRHSSQQFGPILPPTQVGSQTP-NH2
modifications: disulfide 4-9
SMILES: CC[C@H](C)[C@H](NC(=O)[C@@H]1CCCN1C(=O)CNC(=O)[C@H](Cc1ccccc1)NC(=O)[C@H](CCC(N)=O)NC(=O)[C@H](CCC(N)=O)NC(=O)[C@H](CO)NC(=O)[C@H](CO)NC(=O)[C@H](Cc1c[nH]cn1)NC(=O)[C@H](CCCNC(=N)N)NC(=O)[C@H](CC(C)C)NC(=O)[C@H](Cc1ccccc1)NC(=O)[C@H](CCC(=O)O)NC(=O)[C@H](C)NC(=O)[C@H](CC(C)C)NC(=O)[C@H](CCCNC(=N)N)NC(=O)[C@H](CCC(N)=O)NC(=O)[C@@H](NC(=O)[C@H](C)NC(=O)[C@@H]1CSSC[C@H](NC(=O)[C@H](CCC(=O)O)NC(=O)[C@H](CCCNC(=N)N)NC(=O)[C@H](CCC(=O)O)NC(=O)CC[C@H](NC(=O)CCCCCCCCCCCCCCCCCCC(=O)O)C(=O)O)C(=O)N[C@@H](CC(N)=O)C(=O)N[C@@H]([C@@H](C)O)C(=O)N[C@@H](C)C(=O)N[C@@H]([C@@H](C)O)C(=O)N1)[C@@H](C)O)C(=O)N[C@@H](CC(C)C)C(=O)N1CCC[C@H]1C(=O)N1CCC[C@H]1C(=O)N[C@H](C(=O)N[C@@H](CCC(N)=O)C(=O)N[C@H](C(=O)NCC(=O)N[C@@H](CO)C(=O)N[C@@H](CCC(N)=O)C(=O)N[C@H](C(=O)N1CCC[C@H]1C(N)=O)[C@@H](C)O)C(C)C)[C@@H](C)O
B4: N-alpha-[(S)-4-Carboxy-4-(19-carboxynonadecanoylamino)butyryl]-Glu-Arg-[Glu1,Glu14,Arg17,Gln21,Gln35,Pro37]-pramlintide (peptide)
peptide: {C20 diacid-γGlu}-ERECNTATCATQRLAEFLRHSSQNFGPILPPTNVGSQTP-NH2
modifications: disulfide 4-9
SMILES: CC[C@H](C)[C@H](NC(=O)[C@@H]1CCCN1C(=O)CNC(=O)[C@H](Cc1ccccc1)NC(=O)[C@H](CC(N)=O)NC(=O)[C@H](CCC(N)=O)NC(=O)[C@H](CO)NC(=O)[C@H](CO)NC(=O)[C@H](Cc1c[nH]cn1)NC(=O)[C@H](CCCNC(=N)N)NC(=O)[C@H](CC(C)C)NC(=O)[C@H](Cc1ccccc1)NC(=O)[C@H](CCC(=O)O)NC(=O)[C@H](C)NC(=O)[C@H](CC(C)C)NC(=O)[C@H](CCCNC(=N)N)NC(=O)[C@H](CCC(N)=O)NC(=O)[C@@H](NC(=O)[C@H](C)NC(=O)[C@@H]1CSSC[C@H](NC(=O)[C@H](CCC(=O)O)NC(=O)[C@H](CCCNC(=N)N)NC(=O)[C@H](CCC(=O)O)NC(=O)CC[C@H](NC(=O)CCCCCCCCCCCCCCCCCCC(=O)O)C(=O)O)C(=O)N[C@@H](CC(N)=O)C(=O)N[C@@H]([C@@H](C)O)C(=O)N[C@@H](C)C(=O)N[C@@H]([C@@H](C)O)C(=O)N1)[C@@H](C)O)C(=O)N[C@@H](CC(C)C)C(=O)N1CCC[C@H]1C(=O)N1CCC[C@H]1C(=O)N[C@H](C(=O)N[C@@H](CC(N)=O)C(=O)N[C@H](C(=O)NCC(=O)N[C@@H](CO)C(=O)N[C@@H](CCC(N)=O)C(=O)N[C@H](C(=O)N1CCC[C@H]1C(N)=O)[C@@H](C)O)C(C)C)[C@@H](C)O
B5: N-alpha-[(S)-4-Carboxy-4-(19-carboxynonadecanoylamino)butyryl]-Glu-Arg-[Glu1,Glu14,Arg17,Gln21,Pro37]-pramlintide (peptide)
peptide: {C20 diacid-γGlu}-ERECNTATCATQRLAEFLRHSSQNFGPILPPTNVGSNTP-NH2
modifications: disulfide 4-9
SMILES: CC[C@H](C)[C@H](NC(=O)[C@@H]1CCCN1C(=O)CNC(=O)[C@H](Cc1ccccc1)NC(=O)[C@H](CC(N)=O)NC(=O)[C@H](CCC(N)=O)NC(=O)[C@H](CO)NC(=O)[C@H](CO)NC(=O)[C@H](Cc1c[nH]cn1)NC(=O)[C@H](CCCNC(=N)N)NC(=O)[C@H](CC(C)C)NC(=O)[C@H](Cc1ccccc1)NC(=O)[C@H](CCC(=O)O)NC(=O)[C@H](C)NC(=O)[C@H](CC(C)C)NC(=O)[C@H](CCCNC(=N)N)NC(=O)[C@H](CCC(N)=O)NC(=O)[C@@H](NC(=O)[C@H](C)NC(=O)[C@@H]1CSSC[C@H](NC(=O)[C@H](CCC(=O)O)NC(=O)[C@H](CCCNC(=N)N)NC(=O)[C@H](CCC(=O)O)NC(=O)CC[C@H](NC(=O)CCCCCCCCCCCCCCCCCCC(=O)O)C(=O)O)C(=O)N[C@@H](CC(N)=O)C(=O)N[C@@H]([C@@H](C)O)C(=O)N[C@@H](C)C(=O)N[C@@H]([C@@H](C)O)C(=O)N1)[C@@H](C)O)C(=O)N[C@@H](CC(C)C)C(=O)N1CCC[C@H]1C(=O)N1CCC[C@H]1C(=O)N[C@H](C(=O)N[C@@H](CC(N)=O)C(=O)N[C@H](C(=O)NCC(=O)N[C@@H](CO)C(=O)N[C@@H](CC(N)=O)C(=O)N[C@H](C(=O)N1CCC[C@H]1C(N)=O)[C@@H](C)O)C(C)C)[C@@H](C)O
B6: N-alpha-[(S)-4-Carboxy-4-(19-carboxynonadecanoylamino)butyryl]-Glu-Glu-[Arg1,Glu14,Arg17,Gln21,Pro37]-pramlintide (peptide)
peptide: {C20 diacid-γGlu}-EERCNTATCATQRLAEFLRHSSQNFGPILPPTNVGSNTP-NH2
modifications: disulfide 4-9
SMILES: CC[C@H](C)[C@H](NC(=O)[C@@H]1CCCN1C(=O)CNC(=O)[C@H](Cc1ccccc1)NC(=O)[C@H](CC(N)=O)NC(=O)[C@H](CCC(N)=O)NC(=O)[C@H](CO)NC(=O)[C@H](CO)NC(=O)[C@H](Cc1c[nH]cn1)NC(=O)[C@H](CCCNC(=N)N)NC(=O)[C@H](CC(C)C)NC(=O)[C@H](Cc1ccccc1)NC(=O)[C@H](CCC(=O)O)NC(=O)[C@H](C)NC(=O)[C@H](CC(C)C)NC(=O)[C@H](CCCNC(=N)N)NC(=O)[C@H](CCC(N)=O)NC(=O)[C@@H](NC(=O)[C@H](C)NC(=O)[C@@H]1CSSC[C@H](NC(=O)[C@H](CCCNC(=N)N)NC(=O)[C@H](CCC(=O)O)NC(=O)[C@H](CCC(=O)O)NC(=O)CC[C@H](NC(=O)CCCCCCCCCCCCCCCCCCC(=O)O)C(=O)O)C(=O)N[C@@H](CC(N)=O)C(=O)N[C@@H]([C@@H](C)O)C(=O)N[C@@H](C)C(=O)N[C@@H]([C@@H](C)O)C(=O)N1)[C@@H](C)O)C(=O)N[C@@H](CC(C)C)C(=O)N1CCC[C@H]1C(=O)N1CCC[C@H]1C(=O)N[C@H](C(=O)N[C@@H](CC(N)=O)C(=O)N[C@H](C(=O)NCC(=O)N[C@@H](CO)C(=O)N[C@@H](CC(N)=O)C(=O)N[C@H](C(=O)N1CCC[C@H]1C(N)=O)[C@@H](C)O)C(C)C)[C@@H](C)O

How the values were obtained:
[1] = target: T1, human amylin 3(a) receptor (human …); assay: cell-based or functional assay
[2] = target: T2, human calcitonin (a) receptor; assay: cell-based or functional assay

| Binder | Amylin receptor human EC50 [1] [nM] | CTa receptor human EC50 [2] [nM] |
| --- | --- | --- |
| B1 | 1.13 | 1.19 |
| B2 | 1.06 | 3.71 |
| B3 | 1.71 | 3.57 |
| B4 | 0.411 | 2.19 |
| B5 | 0.232 | 1.13 |
| B6 | 0.465 | 0.547 |
